Experimental data from patent US20090181034A1 (AGENSYS, published 2009).

T1: murine PSCA (mouse, UniProt P57096 21-95)
T1 construct: whole, on cells; also called mouse PSCA; Mouse-PSCA
T1 sequence (looked up): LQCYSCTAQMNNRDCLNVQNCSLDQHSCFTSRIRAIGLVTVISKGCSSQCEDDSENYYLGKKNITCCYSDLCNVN

B1: Ha1-4.37 (antibody, IgG1, V domains shown)
VH: PGALQESGPGLVRPSQTLSLTCTVSGGSISSGGTYYWIWIRQHPGKGLEWIGYIYYSGSTYYNPSLKSRVTISVDTSKNQFSLKLSSVTAADTAVYYCARDGITMVRGISGGMDVWGQGTTVTVSS
VL: ASVGDRVTITCRASQSISSHLNWYQQKPGKAPKLLIYAASSLQSGVPSRFSGSGSGTDFTLSISSLQPEDFATYFCQQSYSIPRTFGQGTKVEITR
notes: Fully human MAb from human gamma 1 producing XenoMouse (IgG1, kappa), hybridoma ATCC PTA-6702
B2: Ha1-5.99 (antibody, IgG2, V domains shown)
VH: QVHLQQWGAGLLKPSETLSLTCAVYGGSFSGYYWSWIRQPPGKGLEWIGEINHSGSTSYKPSLKSRVTVSVDTSKNQFSLKLSYVTAADTAVYYCARDRGDYGDFLFDYWGQGTLVTVSS
VL: SPGERATLSCRASQSIGSTYLAWYQQKPGQAPRLLIYGASSRATGIPERFSGSGSGTDFTLTISGLEPEDFAVFYCQQCGSSPPTFGQGTKVEIKR
notes: Fully human MAb from human gamma 2 producing XenoMouse (IgG2, kappa), hybridoma ATCC PTA-6703; Ha1-5.99.1 (subclone label) is treated as the same antibody; also called HA1-5.99.1; Ha1-5.99.1
B3: Ha1-1.16 (antibody, IgG1, V domains shown)
VH: QVQLQQSGPGLVKPSQTLSLTCAISGDSVSSNSAAWNWIRQSPSRGLEWLGRTYYRSKWYNGYAVSVKSRMTINPDTSKNQFSLQLNSVTPEDTAVYYCARERLGELYGMDVWGQGTTVTVSS
VL: QLTQSPDSLAVSLGERATINCKSSQNILYRSSKKNHLVWYQQKPGQPPKLLIYWASTRESGVPARFSGSGSGTDFTLTISTLQAEDVAVYYCQQYYSTPPTFGQGTRLEIKR
notes: Fully human MAb from human gamma 1 producing XenoMouse immunized with PSCA-GST (IgG1, kappa), hybridoma ATCC PTA-6698; Ha1-1.16.1 (subclone label) is treated as the same antibody; also called Ha1-1.16.1
B4: Ha1-4.117 (antibody, V domains shown)
VH: QVQLQESGPGLVKPSQTLSLTCTVSGGSISSGGYYWIWIRQHPGKGLEWIGYIYYNGNTYYNPSLKSRVTMSVDTSKNQFSLKLSSVTAADTAVYYCARDGITMIRGYYYGMDVWGQGTTVTVSS
VL: QLTQSPSSVSASVGDRVTITCRASRGISSWLAWYQQKPGKAPKLLIYTASSLQSGVPSRFSGSGSGTDFTLTISSLQPEDFATYYCQQAYSFPRTFGQGTKVEIKR
notes: Fully human MAb from human gamma 1 producing XenoMouse (IgG1, kappa), hybridoma ATCC PTA-6699; A fluorescein conjugate was used for IHC

Experiments:
[1] = biological target: T2, PSCA (prostate stem cell antigen), human (human, UniProt O43653 12-83); assay: FACS titration on SW780 cells, anti-hIgG-PE, Prism sigmoidal dose-response fit
T2 construct: Tested on cells: SW780, LAPC9AI, PC3-PSCA, B300.19-PSCA, prostate cancer xenograft cells and tumour tissue; also called PSCA v.1; PSCA variant 1
Protocol: A panel of seven (7) anti-human PSCA antibodies was tested for their binding affinity to PSCA on SW780 cells, a human bladder cancer cell line expressing high level of PSCA. […] At the end of the incubation, cells were washed and incubated with anti-hIgG-PE detection antibody for 45 min at 4° C. After washing the unbound detection antibodies, the cells were analyzed by FACS; MFI values of each point were obtained using CellQuest Pro software and were used for affinity calculation using Graphpad Prism software: Sigmoidal Dose-Response (variable slope) equation (Table VII and Table VIII).

murine PSCA = biological target: T1, murine PSCA; assay: FACS on 293T cells expressing murine PSCA, anti-hIgG-PE
Protocol: The cells were incubated with the respective antibodies using the following protocol. […] Specific recognition was determined using anti-hIgG-PE secondary detection antibody.

| Binder | Kd [1] [nM] | binding result (murine PSCA) |
| --- | --- | --- |
| B1 | 0.23 | – |
| B2 | 0.28 | – |
| B3 | 6.91 | no binding |
| B4 | 0.32 | binds |
